IntAct's records for PubMed 21703453

B1: Tip elongation aberrant protein Tea4 (Schizosaccharomyces pombe (strain ATCC 38366 / 972)), O60132 (parent)
chain: MLHMNSASSADSMEIMESHFDPTQQNDSTIIESRYSPEEYLEQSFEIQRIISGENSEPQTVASQEISDSQEEDTTLTSSQFEDCGTEYNEVVEDDEFRSEDEDDFMDEEEEYALYEAELSSSPSIHEEVIDCNFVHAIRGFEATVEGQVDATKGDMMILLDDSNSYWWLVKMCKNLAIGYLPAEYIETPSERLARLNKYKNSETSNSQQSVTLPPLDIVEKTLEAPSPNFRIKRVTFTCSSNSSDDEMDSENDYEAMVNRTVAENGLEIEFSDSSDSSLSAEYRSESEDHVTDSPAYVDLTELEGGFNQFNSTSFQSTSPLGLEIVETEINGSSTTADSKNSHSPYSKFSSAYPDAENSNISKINISIAGNKELYGNATQSDPSLYSTWIANKHKTASSATVDSPLRRSLSVDAMQSNASFSSYSSTSNTDKSLRPSSYSAVSESSNFTHDVSRDNKEISLNAPKSIIVSQSDSFDTSNVTQDAPNDVEKEPISGQMPNNLSVQSLKQLEVYPIRHSVSIEMPSEKLLSPRLYSSSTPSSPTKGFQKDDEEDSENRKQADKVELSPSSLLRQMSLPVDSSSQSDAQCTTSSVYITAERKAFSQSSIDLSTLSNHHVNNEINRRSFAGGFTSLADELSEMRELLHESPAPLECNEEMVIPTPELDASSAIPSSSISHDEDLLPRKNTEESTSSSSFSSLITSPASLQYDENPFKQSVVAELNNNSSSVPFVDSAHASDIHAYDNDHVSTKNKEFNRRLREFILDPDSLSGLYWSVKSAGVRASRRVSRNIEGESVSSDLDDIFANVLKGLSDEMASLLNTNR
partner: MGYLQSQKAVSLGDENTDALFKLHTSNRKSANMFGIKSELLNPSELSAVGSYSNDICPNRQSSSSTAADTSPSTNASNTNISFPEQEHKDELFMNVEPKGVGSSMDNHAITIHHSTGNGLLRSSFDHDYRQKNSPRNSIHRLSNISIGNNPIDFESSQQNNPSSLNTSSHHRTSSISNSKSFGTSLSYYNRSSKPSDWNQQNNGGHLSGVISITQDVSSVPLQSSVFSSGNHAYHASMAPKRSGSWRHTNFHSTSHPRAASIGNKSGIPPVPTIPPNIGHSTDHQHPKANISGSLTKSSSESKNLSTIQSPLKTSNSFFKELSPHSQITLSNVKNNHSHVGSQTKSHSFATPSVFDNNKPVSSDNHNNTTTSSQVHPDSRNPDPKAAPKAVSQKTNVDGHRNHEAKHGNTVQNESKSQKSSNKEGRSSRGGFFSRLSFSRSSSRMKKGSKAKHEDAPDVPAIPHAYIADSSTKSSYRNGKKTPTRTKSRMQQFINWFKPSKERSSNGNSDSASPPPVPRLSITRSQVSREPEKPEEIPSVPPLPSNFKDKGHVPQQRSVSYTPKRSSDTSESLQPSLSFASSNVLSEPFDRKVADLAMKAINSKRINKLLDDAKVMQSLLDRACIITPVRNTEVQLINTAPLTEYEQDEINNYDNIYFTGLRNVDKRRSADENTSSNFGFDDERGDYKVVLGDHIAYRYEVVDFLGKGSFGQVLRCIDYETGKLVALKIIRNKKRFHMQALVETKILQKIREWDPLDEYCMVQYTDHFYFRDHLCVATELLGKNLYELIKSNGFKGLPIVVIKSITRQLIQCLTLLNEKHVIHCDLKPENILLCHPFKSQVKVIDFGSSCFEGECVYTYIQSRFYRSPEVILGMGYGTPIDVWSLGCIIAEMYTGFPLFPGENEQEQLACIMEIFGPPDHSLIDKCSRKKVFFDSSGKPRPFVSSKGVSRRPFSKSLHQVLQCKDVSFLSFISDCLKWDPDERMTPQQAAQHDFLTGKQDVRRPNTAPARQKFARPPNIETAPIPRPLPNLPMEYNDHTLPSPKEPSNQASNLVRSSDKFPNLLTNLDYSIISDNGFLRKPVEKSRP
B2: Tip elongation aberrant protein Tea4 (Schizosaccharomyces pombe (strain ATCC 38366 / 972)), O60132 (parent)
chain: B1 chain

What was measured:
pom1_schpo pom1, Q09690 [1] = variants of: B1; conditions: with pom1_schpo pom1, Q09690
pom1_schpo pom1, Q09690 [2] = variants of: B1; conditions: with pom1_schpo pom1, Q09690; remark: listed apart in the source
pp11_schpo dis2, P13681 [3] = variants of: B2; conditions: with pp11_schpo dis2, P13681
pp11_schpo dis2, P13681 [4] = variants of: B2; conditions: with pp11_schpo dis2, P13681; remark: listed apart in the source

pp11_schpo dis2, P13681, sequence (P13681 whole entry): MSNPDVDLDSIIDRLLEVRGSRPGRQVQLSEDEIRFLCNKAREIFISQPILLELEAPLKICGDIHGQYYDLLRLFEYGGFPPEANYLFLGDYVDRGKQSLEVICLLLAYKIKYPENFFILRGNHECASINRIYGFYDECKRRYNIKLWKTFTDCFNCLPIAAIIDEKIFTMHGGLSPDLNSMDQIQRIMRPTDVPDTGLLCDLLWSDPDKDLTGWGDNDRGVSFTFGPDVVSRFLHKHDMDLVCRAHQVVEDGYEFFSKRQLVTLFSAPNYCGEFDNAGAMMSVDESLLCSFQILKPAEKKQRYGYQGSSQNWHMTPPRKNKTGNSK

Row | effect of a mutation on the interaction (pom1_schpo pom1, Q09690 [1]) | effect of a mutation on the interaction (pom1_schpo pom1, Q09690 [2]) | effect of a mutation on the interaction (pp11_schpo dis2, P13681 [3]) | effect of a mutation on the interaction (pp11_schpo dis2, P13681 [4]) | Variant
1 | decreasing interaction | disrupting interaction |  |  | W167A;W168A
2 |  |  | disrupting interaction |  | V235A;F237A
3 |  |  | disrupting interaction | decreasing interaction | W167A;W168A
